Source: paper PMC5646246, “Unraveling the Self-Assembly of the Pseudomonas aeruginosa XcpQ Secretin Periplasmic Domain Provides New Molecular Insights into Type II Secretion System Secreton Architecture and Dynamics” (mBio, 2017)
Where “and” joins values, the source holds several entries; their conditions need not be identical. Equal values may be shown once.

Tests used:
[1] = target: T1, XcpQ_(N012) with biotin tag (fixed on streptavidin sensors) (Pseudomonas aeruginosa) (UniProt P35818); assay: BLI; XcpQ_(N012) fixed on streptavidin sensors by a biotin tag; soluble vHH04 from 0.156 to 10 µM
T1 sequence (chain, biotin (biotin tag, site not stated)): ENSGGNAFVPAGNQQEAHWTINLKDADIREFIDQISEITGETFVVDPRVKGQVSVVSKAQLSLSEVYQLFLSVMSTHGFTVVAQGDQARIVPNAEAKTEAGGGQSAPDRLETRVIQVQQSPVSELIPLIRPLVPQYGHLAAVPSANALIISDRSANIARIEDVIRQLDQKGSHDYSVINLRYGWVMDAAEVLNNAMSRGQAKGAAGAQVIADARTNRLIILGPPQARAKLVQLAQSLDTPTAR

[2] = target: T2, XcpQ_(N012) (N0, N1 and N2 subdomains of the periplasmic N-terminal domain of the P. aeruginosa XcpQ secretin) (Pseudomonas aeruginosa, UniProt P35818); assay: SEC; vHH04 mixed with the preformed XcpQ_(N012) multimer (dodecamer); shift of the H peak; conditions: both partners purified
T2 construct: XcpQ secretin of the Xcp type II secretion system, Pseudomonas aeruginosa; subdomains N0, N1 and N2; 26 kDa; the whole N domain covers residues 51 to 365; Found in solution as dimers (L) and dodecamers (H); also called matured XcpQ_(N012); untagged XcpQ_(N012)

[3] = target: the molecule itself; assay: negative-staining single-particle electron microscopy; SEC fractions diluted to 0.02-0.05 mg/ml, uranyl acetate stain, EMAN2 2D classes; 3D reconstruction with C6 symmetry imposed for the Trx fusions
[4] = target: the molecule itself; assay: SEC; HiLoad 16/600 Superdex 200 column calibrated with standard proteins; purified protein alone
[5] = target: the molecule itself; assay: SEC + cross-linking; XcpQ_(N012)-T54C-Q86C without H2O2 treatment, HiLoad Superdex 200 16/600; oligomeric fractions on SDS-PAGE under reducing and nonreducing conditions
[6] = target: T3, chitin binding protein D (CbpD), Xcp T2SS effector (Pseudomonas aeruginosa, UniProt Q9I589 26-389); assay: BLI; sensor coupled to CbpD or to XcpPp; XcpQ_(N012) alone or the XcpQ_(N012)-vHH04 complex in solution; conditions: both partners purified
T3 construct: Coupled to the BLi sensor; source: purified
T3 sequence: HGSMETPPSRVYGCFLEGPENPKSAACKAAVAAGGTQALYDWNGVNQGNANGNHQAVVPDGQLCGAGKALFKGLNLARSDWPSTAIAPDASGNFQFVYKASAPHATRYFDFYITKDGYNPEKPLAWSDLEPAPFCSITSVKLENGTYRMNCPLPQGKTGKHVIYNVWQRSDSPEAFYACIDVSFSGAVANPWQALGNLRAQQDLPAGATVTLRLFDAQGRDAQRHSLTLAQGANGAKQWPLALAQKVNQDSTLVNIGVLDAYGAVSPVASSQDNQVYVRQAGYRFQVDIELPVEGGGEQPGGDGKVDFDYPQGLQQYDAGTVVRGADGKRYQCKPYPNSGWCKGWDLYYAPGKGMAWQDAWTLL

[7] = target: the molecule itself; assay: cross-linking; in vivo disulfide cross-linking of V5-tagged full-length XcpQ variants in P. aeruginosa PAO1 ΔxcpQ; membranes with N-ethylmaleimide, SDS-PAGE denaturing, nonreducing or reducing, anti-V5 blot

B1: vHH04 nanobody directed against XcpQN (VHH)
VHH: QVQLVESGGGSVQAGGSLRLSCAASGNTDSSYYMGWFRQGPGKEREGVASIYIRAGIPYYTDSVKGRFTISQDNAKNTIYLQMNSLKPEDTAMYFCAGSVRTTIQPFKGNYYNYWGRGTQVTVSS
notes: camel nanobody; About 16 kDa; For the in vivo interference the histidine-tagged vHH04 was produced in the periplasm of P. aeruginosa PAO1 (IPTG-inducible); also called histidine-tagged vHH04; His-tagged vHH04; source: E. coli WK6, purified
- Kd [1]: 5.6 µM
- stoichiometry N [2]: 6 vHH04 per XcpQ_(N012) dodecamer

B2: Trx-XcpQ_(N012)-S210C (domain or fragment)
chain: ENSGGNAFVPAGNQQEAHWTINLKDADIREFIDQISEITGETFVVDPRVKGQVSVVSKAQLSLSEVYQLFLSVMSTHGFTVVAQGDQARIVPNAEAKTEAGGGQSAPDRLETRVIQVQQSPVSELIPLIRPLVPQYGHLAAVPSANALIISDRSANIARIEDVIRQLDQKGSHDYCVINLRYGWVMDAAEVLNNAMSRGQAKGAAGAQVIADARTNRLIILGPPQARAKLVQLAQSLDTPTAR
notes: XcpQ secretin, Pseudomonas aeruginosa; subdomains N0, N1 and N2; Uncleaved thioredoxin fusion of m3; source: E. coli BL21(DE3)pLysS, purified; copies: 12
- binding result [3]: binds

B3: Trx-XcpQ_(N012) fusion protein (domain or fragment)
chain: ENSGGNAFVPAGNQQEAHWTINLKDADIREFIDQISEITGETFVVDPRVKGQVSVVSKAQLSLSEVYQLFLSVMSTHGFTVVAQGDQARIVPNAEAKTEAGGGQSAPDRLETRVIQVQQSPVSELIPLIRPLVPQYGHLAAVPSANALIISDRSANIARIEDVIRQLDQKGSHDYSVINLRYGWVMDAAEVLNNAMSRGQAKGAAGAQVIADARTNRLIILGPPQARAKLVQLAQSLDTPTAR
notes: XcpQ secretin, Pseudomonas aeruginosa; subdomains N0, N1 and N2; Uncleaved thioredoxin fusion of m1; also called Trx-Q_(N012); source: E. coli BL21(DE3)pLysS, purified (SEC); copies: 12
- stoichiometry N [4]: 12

B4: XcpQ_(N012)-T54C-Q86C (domain or fragment)
chain: ENSGGNAFVPAGNQQEAHWCINLKDADIREFIDQISEITGETFVVDPRVKGCVSVVSKAQLSLSEVYQLFLSVMSTHGFTVVAQGDQARIVPNAEAKTEAGGGQSAPDRLETRVIQVQQSPVSELIPLIRPLVPQYGHLAAVPSANALIISDRSANIARIEDVIRQLDQKGSHDYSVINLRYGWVMDAAEVLNNAMSRGQAKGAAGAQVIADARTNRLIILGPPQARAKLVQLAQSLDTPTAR
modifications: disulfide bridges between T54C and Q86C of neighbouring chains
notes: XcpQ secretin, Pseudomonas aeruginosa; subdomains N0, N1 and N2; source: E. coli BL21(DE3)pLysS, purified (same protocol as XcpQ_(N012), SEC without H2O2 treatment)
- stoichiometry N [5]: 12 and 4 and 6

B5: XcpQ_(N012) (N0, N1 and N2 subdomains of the periplasmic N-terminal domain of the P. aeruginosa XcpQ secretin) (domain or fragment, Pseudomonas aeruginosa)
chain: ENSGGNAFVPAGNQQEAHWTINLKDADIREFIDQISEITGETFVVDPRVKGQVSVVSKAQLSLSEVYQLFLSVMSTHGFTVVAQGDQARIVPNAEAKTEAGGGQSAPDRLETRVIQVQQSPVSELIPLIRPLVPQYGHLAAVPSANALIISDRSANIARIEDVIRQLDQKGSHDYSVINLRYGWVMDAAEVLNNAMSRGQAKGAAGAQVIADARTNRLIILGPPQARAKLVQLAQSLDTPTAR
notes: XcpQ secretin of the Xcp type II secretion system, Pseudomonas aeruginosa; subdomains N0, N1 and N2; 26 kDa; the whole N domain covers residues 51 to 365; Found in solution as dimers (L) and dodecamers (H); also called matured XcpQ_(N012); untagged XcpQ_(N012)
- binding result [6]: binds

B6: full-length XcpQ-S210C (natural protein)
chain: ENSGGNAFVPAGNQQEAHWTINLKDADIREFIDQISEITGETFVVDPRVKGQVSVVSKAQLSLSEVYQLFLSVMSTHGFTVVAQGDQARIVPNAEAKTEAGGGQSAPDRLETRVIQVQQSPVSELIPLIRPLVPQYGHLAAVPSANALIISDRSANIARIEDVIRQLDQKGSHDYCVINLRYGWVMDAAEVLNNAMSRGQAKGAAGAQVIADARTNRLIILGPPQARAKLVQLAQSLDTPTARSANTRVIRLRHNDAKTLAETLGQISEGMKNNGGQGGEQTGGGRPSNILIRADESTNALVLLADPDTVNALEDIVRQLDVPRAQVLVEAAIVEISGDIQDAVGVQWAINKGGMGGTKTNFANTGLSIGTLLQSLESNKAPESIPDGAIVGIGSSSFGALVTALSANTKSNLLSTPSLLTLDNQKAEILVGQNVPFQTGSYTTNSEGSSNPFTTVERKDIGVSLKVTPHINDGAALRLEIEQEISALLPNAQQRNNTDLITSKRSIKSTILAENGQVIVIGGLIQDDVSQAESKVPLLGDIPLLGRLFRSTKDTHTKRNLMVFLRPTVVRDSAGLAALSGKKYSDIRVIDGTRGPEGRPSILPTNANQLFDGQAVDLRELMTE
modifications: disulfide bridge between S210C of two chains
notes: XcpQ secretin, Pseudomonas aeruginosa, full length; Made with its own signal peptide and exported to the envelope; source: P. aeruginosa PAO1 ΔxcpQ, pJN vector, arabinose-induced, in membrane samples; not shown: V5, C-terminal, kept
- stoichiometry N [7]: 2

B7: full-length XcpQ-T54C-Q86C (natural protein)
chain: ENSGGNAFVPAGNQQEAHWCINLKDADIREFIDQISEITGETFVVDPRVKGCVSVVSKAQLSLSEVYQLFLSVMSTHGFTVVAQGDQARIVPNAEAKTEAGGGQSAPDRLETRVIQVQQSPVSELIPLIRPLVPQYGHLAAVPSANALIISDRSANIARIEDVIRQLDQKGSHDYSVINLRYGWVMDAAEVLNNAMSRGQAKGAAGAQVIADARTNRLIILGPPQARAKLVQLAQSLDTPTARSANTRVIRLRHNDAKTLAETLGQISEGMKNNGGQGGEQTGGGRPSNILIRADESTNALVLLADPDTVNALEDIVRQLDVPRAQVLVEAAIVEISGDIQDAVGVQWAINKGGMGGTKTNFANTGLSIGTLLQSLESNKAPESIPDGAIVGIGSSSFGALVTALSANTKSNLLSTPSLLTLDNQKAEILVGQNVPFQTGSYTTNSEGSSNPFTTVERKDIGVSLKVTPHINDGAALRLEIEQEISALLPNAQQRNNTDLITSKRSIKSTILAENGQVIVIGGLIQDDVSQAESKVPLLGDIPLLGRLFRSTKDTHTKRNLMVFLRPTVVRDSAGLAALSGKKYSDIRVIDGTRGPEGRPSILPTNANQLFDGQAVDLRELMTE
modifications: disulfide bridge between T54C and Q86C of two chains
notes: as for B6
- stoichiometry N [7]: 2
